Measurements from patent US20190240316A1 (VANDERBILT UNIVERSITY, published 2019).

Columns and labels:
[1] = target: F protein on infectious RSV strain A2 (human respiratory syncytial virus …, UniProt P03420 26-574); experiment: cell-based or functional assay
Target sequence in this assay (P03420 26-574): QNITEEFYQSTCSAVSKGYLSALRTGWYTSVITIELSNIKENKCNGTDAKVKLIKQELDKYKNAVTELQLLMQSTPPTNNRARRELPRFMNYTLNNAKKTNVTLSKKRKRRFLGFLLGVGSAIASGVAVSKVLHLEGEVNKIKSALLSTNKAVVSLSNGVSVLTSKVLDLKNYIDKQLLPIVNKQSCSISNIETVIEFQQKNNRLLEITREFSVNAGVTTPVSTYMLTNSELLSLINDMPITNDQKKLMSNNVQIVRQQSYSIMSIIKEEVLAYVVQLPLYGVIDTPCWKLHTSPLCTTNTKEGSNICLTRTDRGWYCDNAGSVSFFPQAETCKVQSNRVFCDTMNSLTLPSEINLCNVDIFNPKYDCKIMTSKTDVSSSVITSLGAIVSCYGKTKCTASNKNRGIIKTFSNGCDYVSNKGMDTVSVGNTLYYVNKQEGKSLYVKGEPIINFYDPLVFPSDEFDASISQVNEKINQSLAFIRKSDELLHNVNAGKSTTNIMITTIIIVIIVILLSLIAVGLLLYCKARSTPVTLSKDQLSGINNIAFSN

[2] = target: T1, recombinant post-fusion RSV strain A2 F protein (human respiratory syncytial virus …, UniProt P03420 26-109; P03420 147-513); experiment: ELISA on coated antigen
T1 construct: Viral fusion glycoprotein, trimer of protomers (each cleaved into two disulfide-linked fragments); also called RSV A2; post-fusion RSV A2 F
T1 sequence (P03420 147-513, one chain of several): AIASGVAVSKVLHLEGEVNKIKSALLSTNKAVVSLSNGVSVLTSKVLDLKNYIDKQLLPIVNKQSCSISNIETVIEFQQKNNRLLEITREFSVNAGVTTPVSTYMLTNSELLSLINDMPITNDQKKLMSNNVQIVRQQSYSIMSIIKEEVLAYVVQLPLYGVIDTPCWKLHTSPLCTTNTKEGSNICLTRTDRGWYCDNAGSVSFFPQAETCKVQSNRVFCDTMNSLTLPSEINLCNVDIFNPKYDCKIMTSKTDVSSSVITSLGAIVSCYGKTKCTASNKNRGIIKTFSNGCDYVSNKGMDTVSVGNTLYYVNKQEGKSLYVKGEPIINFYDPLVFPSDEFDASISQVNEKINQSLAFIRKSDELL

[3] = target: T2, post-fusion F protein from RSV strain 18537 B (human respiratory syncytial virus …, UniProt P13843 26-109; P13843 147-513); experiment: ELISA on coated antigen
T2 construct: also called RSV 18537 B; RSV 18537 B post-fusion F
T2 sequence (P13843 26-109, chain 1 of 2): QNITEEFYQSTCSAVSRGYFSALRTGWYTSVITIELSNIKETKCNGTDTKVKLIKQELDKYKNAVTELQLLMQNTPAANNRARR
T2 sequence (P13843 147-513, chain 2 of 2): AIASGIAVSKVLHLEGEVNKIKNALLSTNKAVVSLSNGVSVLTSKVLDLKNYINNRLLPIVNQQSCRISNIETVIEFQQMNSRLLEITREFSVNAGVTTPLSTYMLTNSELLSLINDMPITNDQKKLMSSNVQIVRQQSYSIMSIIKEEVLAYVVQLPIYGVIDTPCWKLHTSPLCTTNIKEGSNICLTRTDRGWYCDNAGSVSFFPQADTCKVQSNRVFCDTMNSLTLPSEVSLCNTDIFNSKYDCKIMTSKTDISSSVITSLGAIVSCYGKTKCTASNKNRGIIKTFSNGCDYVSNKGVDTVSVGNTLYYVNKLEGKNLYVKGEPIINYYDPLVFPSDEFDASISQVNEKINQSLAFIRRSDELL

[4] = target: F protein on infectious RSV strain A2 (human respiratory syncytial virus …, UniProt P03420 26-574); experiment: cell-based or functional assay; remark: listed apart in the source
Target sequence in this assay (P03420 26-574): as the sequence (P03420 26-574) above

B1: mAb 13A8 (antibody, V domains shown)
VH: QVQLVESGGGVVQPGKSLRLSCAASGYIFSSYDMHWVRQAPGKGLEWVAVISFDGTTQHYADSVRGRFTVSRDNSQNTVFLQMNSLRPEDTAVYYCVKEYVIVSTFFDYWGQGTLVTVSS
VL: DIVMTQSPSSLSASVGDRVTITCRASQGIRNALGWYQHKPGKAPKVLIYAASRLQSGVPSRFSGSGSGTDFTLTISSLQPEDFATYYCLQDFNYPWTFGHGTKVEIK
Neutralization (IC50; ng/mL) RSV A2, plaque-reduction assay [1]: 55 ng/mL | EC50 [2]: 0.082 µg/mL | EC50 [3]: 0.064 µg/mL

B2: mAb D25 (antibody, V domains shown)
VH: QVQLVQSGAEVKKPGSSVMVSCQASGGPLRNYIINWLRQAPGQGPEWMGGIIPVLGTVHYAPKFQGRVTITADESTDTAYIHLISLRSEDTAMYYCATETALVVSTTYLPHYFDNWGQGTLVTVSS
VL: DIQMTQSPSSLSAAVGDRVTITCQASQDIVNYLNWYQQKPGKAPKLLIYVASNLETGVPSRFSGSGSGTDFSLTISSLQPEDVATYYCQQYDNLPLTFGGGTKVEIKR
Neutralization (IC50; ng/mL) RSV A2, plaque-reduction assay [4]: 21 ng/mL

B3: mAb 10F13 (antibody, V domains shown)
VH: QVQLVQSGGGVVQPGRSLRLSCAASGFPFRIYSMHWVRQAPGKGLEWVALISYDGTNKQYADSVNGRFTISRDNSENTMYLQMNSLRPEDTAIYYCATDIVELVTATDYWGQGTLVTVSS
VL: AVVTQSPGTLSLSPGDRATLSCRASQSVSTSLGWYQQKPGQSPRLLIYGTSRRATGVPDRFSGSGSETDFTLTISRLEPEDFSVYYCQQYGSSPYTFGQGTRLEIK
notes: The printed light chain has an unusual N-terminal part
EC50 [2]: 0.017 µg/mL | EC50 [3]: 0.021 µg/mL

B4: mAb 3J20 (antibody, V domains shown)
VH: EVQLVESGGGLVQPGGSLRLSCAASGFTFSSFTMNWVRQAPGKGLQWVSTISGSGGLTYYADSVKGRFTISRDNSKNTLSLQMNSLRAEDTAVYYCARDLEFTVTSYGGYYFEYWGQGTLVTVSS
VL: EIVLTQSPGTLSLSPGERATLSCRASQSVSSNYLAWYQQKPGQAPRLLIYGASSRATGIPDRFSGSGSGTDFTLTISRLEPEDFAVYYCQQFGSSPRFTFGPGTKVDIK
Neutralization (IC50; ng/mL) RSV A2, plaque-reduction assay [1]: 377 ng/mL | EC50 [2]: 0.084 µg/mL | EC50 [3]: 0.05 µg/mL

B5: mAb 14N4 (antibody, V domains shown)
VH: QVQLVESGGGLIQPGGSLRLSCAVSGFTVSSKYMTWVRQAPGKGLEWVSVIYGGGSTYYADSVVGRFTISRDNSKNTLYLQMNSLRAEDTAVYYCASRLGVRATTGDLDYWGQGTLVTVSS
VL: QIVMTQSPSTLSASVGDRVTITCRASQSISSWLAWYQQKPGKAPKLLIYDASSLESGVPSRFSGSGSGTEFTLTISSLQPDDFATYYCQQYNTYSWWTFGQGTKVEIK
Neutralization (IC50; ng/mL) RSV A2, plaque-reduction assay [1]: 695 ng/mL | EC50 [2]: 0.078 µg/mL | EC50 [3]: 0.057 µg/mL

B6: mAb 12I1 (antibody, V domains shown)
VH: QVQLVQSGGGVVQPGQSLRLSCAASGFSFSDYPIHWVRQAPGKGLEWVAGISYYGSNKFYADSVRGRFTISRDTSKNTFNLQMNSLKSEDTAVYYCARDGNPPRFLEYFDYWGQGTLVTVSS
VL: QPVVTQPRSVSGSPGQSVTISCTGSSSDVGGYNFVSWYRHHPGKAPKLLIYHVTKRPSGVPDRFSGSKSGNTASLTISGLQAEDEADYYCCSYAGSYTYVLFGGGTKLTVL
notes: Non-neutralizing, antigenic site VII
Neutralization (IC50; ng/mL) RSV A2, plaque-reduction assay [1]: > 100000 ng/mL | EC50 [2]: 0.026 µg/mL | EC50 [3]: 0.033 µg/mL

B7: mAb 9J5 (antibody, V domains shown)
VH: QVQLVQSGAEVKKPGSSVTVSCKASGGSFTNYAFSWVRQAPGQGLEWMGGIIPLLNMPNYAQKFRGRVTISADQSTTTAYMELSRLTSEDTAIYFCARGGQVGDFIVLRHFDSWGQGTLVTVSS
VL: TLSCRASESVSNYLAWYQQKPGQTPRLLIYGASTRATGIPARFSGSGSGSEFTLTISSLQSEDFAVYYCQQYNDWPRFSFGQGTKLEIK
Neutralization (IC50; ng/mL) RSV A2, plaque-reduction assay [1]: > 100000 ng/mL | EC50 [2]: 0.03 µg/mL | EC50 [3]: 0.04 µg/mL

B8: mAb 14C16 (antibody, V domains shown)
VH: QVQLGESGPALVKPTQTLTLTCTFSGFSLSTSEMCVSWIRQPPGKALEWLALIDWDGDKFFSTSLQSRLTISKSPSNNQVVLTMTNMDPVDSGTYFCARSTVRRSSGYYYYVLDVWGQGTLVTVSS
VL: QIVMTQSPSSLSASVGDRVTISCRASQSIGTYVNWYQHKPGKAPKVLISGASNLHSGVPSRFSGSGSGTDFTLTISSLQPEDFATYYCQQSYSPLTFGGGTTVEMK
Neutralization (IC50; ng/mL) RSV A2, plaque-reduction assay [1]: > 100000 ng/mL | EC50 [2]: 0.019 µg/mL | EC50 [3]: 0.02 µg/mL

B9: mAb 4B6 (antibody, V domains shown)
VH: QVQLVQSGGGLAQPGRSLRLSCRASGFTFGDFNMNWFRQAPGKGLEWVGFIRRKAFGGATEYAASVKGRLTISRDDSKSIAYLQMNSLKTEDTAVYYCTRERGYVGSGGPFFDYWGQGTLVTVSS
VL: QAVVTQPPSVSGAPGQRVTISCTGSSSNIGAGYDVHWYQQLPGTAPKLLIYGDSNRPSGVPDRFSGSSSGTSASLAITGLQAEDEADYYCQSYDNSLSGSVFGTGTKVTVL
Neutralization (IC50; ng/mL) RSV A2, plaque-reduction assay [1]: > 100000 ng/mL | EC50 [2]: 0.024 µg/mL | EC50 [3]: 0.024 µg/mL

B10: motavizumab (antibody, V domains shown)
VH: QVTLRESGPALVKPTQTLTLTCTFSGFSLSTAGMSVGWIRQPPGKALEWLADIWWDDKKHYNPSLKDRLTISKDTSKNQVVLKVTNMDPADTATYYCARDMIFNFYFDVWGQGTTVTVSS
VL: DIQMTQSPSTLSASVGDRVTITCSASSRVGYMHWYQQKPGKAPKLLIYDTSKLASGVPSRFSGSGSGTEFTLTISSLQPDDFATYYCFQGSGYPFTFGGGTKVEIK
Neutralization (IC50; ng/mL) RSV A2, plaque-reduction assay [4]: 123 ng/mL | EC50 [2]: 0.03 µg/mL | EC50 [3]: 0.035 µg/mL
